The target of assay [1] is photosystem I (PSI) core from H. hongdechloris grown under far-red light, one monomer of the trimer (Halomicronema hongdechloris). Description: cryo-EM structure; single particle analysis of PSI trimers purified whole from thylakoid membranes; 50 mM MES (pH 6.0), 5 mM CaCl2, 0.2-2.0% sucrose, 0.01% β-DDM; grids washed without sucrose and β-DDM; 2.35 Å (white PSI) and 2.41 Å (far-red PSI).

Assay [2] concerns the target photosystem I (PSI) core from H. hongdechloris grown under white light, one monomer of the trimer (Halomicronema hongdechloris). The description is as above.

Consider “photosystem I (PSI) core from H. hongdechloris grown under far-red light, one monomer of the trimer (from UniProt A0A1Z3HPE3 1-81; A0A1Z3HHI7 1-142; A0A1Z3HI16 1-68; A0A1Z3HR36 1-96) (complex)”, for which the stoichiometry N (usually a count of units in the complex or per binding partner) in assay [1] turned out to be 3.
“photosystem I (PSI) core from H. hongdechloris grown under white light, one monomer of the trimer (from UniProt A0A1Z3HPE3 1-81; A0A1Z3HHI7 1-142; A0A1Z3HI16 1-68) (complex)” returned a stoichiometry N in assay [2] of 3.
